# Results as given in patent US20240352438A1, “MEANS AND METHODS FOR DETOXIFYING OCHRATOXIN A” (DSM Austria GmbH, priority 2021, published 2024).
# Assay: OTA detoxification activity assay (specific activity, fluorescence reduction ex/em 390/450 nm)
# Format: biochemical
# Conditions: for Specific OTA detoxification activities in % compared to the enzyme of SEQ ID NO: 1, pH 6.0 / Specific OTA detoxification activities in % compared to the enzyme of SEQ ID NO: 1, pH 7.5: SEQ ID NO: 1 = 100%
# Description: To determine the specific activity of recombinant target polypeptides produced e.g. as described in Example 2 above in units per liter (U/L), ochratoxin A (OTA) detoxification activity assays were performed. One unit is defined as the amount of enzyme necessary for degradation of 1 μmol or OTA in 1 min when using a starting OTA concentration of […].
# OTA detoxification activity assays were set up in a final volume of the reaction mixture of […], containing the recombinant enzyme preparation (preferably diluted to yield a volumetric activity of 1-10 mU/L), and 200 ng/mL OTA in 100 mM sodium phosphate buffer.
# Specific activities were determined at pH 6.0 and pH 7.5. As soon as all components of the reaction mixture were mixed, OTA degradation was followed at 37° C. on a fluorescence spectrophotometer (BioTek Synergy H1 MFD Multimode microplate reader) by following the reduction in fluorescence at ex/em 390 nm/450 nm. For work performed at pH 6.0 and 7.5, a 100 mM sodium phosphate buffer was used.
# For calculation of the specific activity, the initial linear part of the recorded fluorescence reduction curve was used. In addition to the fluorescence-based method described above, OTA degradation was also determined by using the HPLC-MS method as described by Dellafiora et al. 2020, Toxins 12, 258, essentially confirming the fluorescence-based results. Genes encoding either of the indicated SEQ ID NOs are expressed as described herein and the specific activities for the obtained polypeptide preparation are exemplarily shown in Table 8. Analogously, enzymatic activities using either ochratoxin B, C or TA as substrate or can be found.
Molecule,% of the activity of the non-mutated enzyme of SEQ ID NO: 318 at pH 6 [%],% of the activity of the non-mutated enzyme of SEQ ID NO: 318 at pH 7.5 [%],"Specific OTA detoxification activities in % compared to the enzyme of SEQ ID NO: 1, pH 6.0 [%]","Specific OTA detoxification activities in % compared to the enzyme of SEQ ID NO: 1, pH 7.5 [%]"
"I308V/V355L: variant of the enzyme of SEQ ID NO: 318 having the mutation combination I308V/V355L (protein, exemplary polypeptide) MTTRTRILTAFLSLLAANACAADAAPAAPHTVVLRAARMFDGASGKLVDHPQLTIVGNKIVRIAQGDKAEVPAGAEVVDLGDATLLPGFIDAHVHLSGQSSDNWYGDFFDNMMRFPAEQALYGAYYARITLEAGFTSVRDVGSTDWVALGLRNAIDAGKVPGPRMLVSNYAVGSTGGHADQDPIPPHKLPLAGPLQGVCNGPEECRAAVRYQIKYGANVIKFMPSGGVLSLSDPVDAPELSQDEMNAVIGESHAWGRKVAAHAHGDKAAKMAVAAGVDSIEHGSFIEDDTLRAMKAKNVYLVPTISAVAHVEEKIGTFPPVIAEKGRAAAAHLRQTFRHAVQIGVPIALGTDAGLGAHGSNAREFRYMVENGLTPAQALLAGTANAARLLGTFDRVGTLEAGKLADVVAVPGNPIADITVTERPLFVMKDGVVVRRDAVR",209,189,–,–
"172 (protein, exemplary polypeptide) MTTRTRILTAFLSLLAANACAADAAPAAPHTVVLRAARMFDGASGKLVDHPQLTIVGNKIVRIAQGDKAEVPAGAEVVDLGDATLLPGFIDAHVHLSGQSSDNWYGDFFDNMMRFPAEQALYGAYYARITLEAGFTSVRDVGSTDWVALGLRNAIDAGKVPGPRMLVSNYPVGSTGGHADQDPIPPHKLPLAGPLQGVCNGPEECRAAVRYQIKYGANVIKFMPSGGVLSLSDPVDAPELSQDEMNAVIGESHAWGRKVAAHAHGDKAAKMAVAAGVDSIEHGSFIEDDTLRAMKAKNVYLVPTISAIAHVEEKIGTYPPVIAEKGRAAAAHLRQTFRHAVQIGVPIALGTDAAVGAHGSNAREFRYMVENGLTPAQALLAGTANAARLLGTFDRVGTLEAGKLADVVAVPGNPIADITVTERPLFVMKDGVVVRRDAVR",–,–,62,70
"F318Y/V355L: variant of the enzyme of SEQ ID NO: 318 having the mutation combination F318Y/V355L (protein, exemplary polypeptide) MTTRTRILTAFLSLLAANACAADAAPAAPHTVVLRAARMFDGASGKLVDHPQLTIVGNKIVRIAQGDKAEVPAGAEVVDLGDATLLPGFIDAHVHLSGQSSDNWYGDFFDNMMRFPAEQALYGAYYARITLEAGFTSVRDVGSTDWVALGLRNAIDAGKVPGPRMLVSNYAVGSTGGHADQDPIPPHKLPLAGPLQGVCNGPEECRAAVRYQIKYGANVIKFMPSGGVLSLSDPVDAPELSQDEMNAVIGESHAWGRKVAAHAHGDKAAKMAVAAGVDSIEHGSFIEDDTLRAMKAKNVYLVPTISAIAHVEEKIGTYPPVIAEKGRAAAAHLRQTFRHAVQIGVPIALGTDAGLGAHGSNAREFRYMVENGLTPAQALLAGTANAARLLGTFDRVGTLEAGKLADVVAVPGNPIADITVTERPLFVMKDGVVVRRDAVR",197,138,–,–
"171 (protein, exemplary polypeptide) MTTRTRILTAFLSLLAANACAADAAPAAPHTVVLRAARMFDGASGKLVDHPQLTIVGNKIVRIAQGDKAEVPAGAEVVDLGDATLLPGFIDAHVHLSGQSSDNWYGDFFDNMMRFPAEQALYGAYYARITLEAGFTSVRDVGSTDWVALGLRNAIDAGKVPGPRMLVSNYPVGSTGGHADQDPIPPHKLPLAGPLQGVCNGPEECRAAVRYQIKYGANVIKFMPSGGVLSLSDPVDAPELSQDEMNAVIGESHAWGRKVAAHAHGDKAAKMAVAAGVDSIEHGSFIEDDTLRAMKAKNVYLVPTISAVAHVEEKIGTFPPVIAEKGRAAAAHLRQTFRHAVQIGVPIALGTDAAVGAHGSNAREFRYMVENGLTPAQALLAGTANAARLLGTFDRVGTLEAGKLADVVAVPGNPIADITVTERPLFVMKDGVVVRRDAVR",–,–,69,37
"170 (protein, exemplary polypeptide) MTTRTRILTAFLSLLAANACAADAAPAAPHTVVLRAARMFDGASGKLVDHPQLTIVGNKIVRIAQGDKAEVPAGAEVVDLGDATLLPGFIDAHVHLSGQSSDNWYGDFFDNMMRFPAEQALYGAYYARITLEAGFTSVRDVGSTDWVALGLRNAIDAGKVPGPRMLVSNYPVGSTGGHADQDPIPPHKLPLAGPLQGVCNGPEECRAAVRYQIKYGANVIKFMPSGGVLSLSDPVDAPELSQDEMNAVIGESHAWGRKVAAHAHGDKAAKMAVAAGVDSIEHGSFIEDDTLRAMKAKNVYLVPTISAAAHVEEKIGTFPPVIAEKGRAAAAHLRQTFRHAVQIGVPIALGTDAAVGAHGSNAREFRYMVENGLTPAQALLAGTANAARLLGTFDRVGTLEAGKLADVVAVPGNPIADITVTERPLFVMKDGVVVRRDAVR",–,–,49,32
"161 (protein, exemplary polypeptide) MTTRTRILTAFLSLLAANACAADAAPAAPHTVVLRAARMFDGASGKLVDHPQLTIVGNKIVRIAQGDKAEVPAGAEVVDLGDATLLPGFIDAHVHLSGQSSDNWYGDFFDNMMRFPAEQALYGAYYARITLEAGFTSVRDVGSTDWVALGLRNAIDAGKVPGPRMLVSNYAVGSTGGHADQDPIPPHKLPLAGPLQGVCNGPEECRAAVRYQIKYGANVIKFMPSGGVLSLSDPVDAPELSQDEMNAVIGESHAWGRKVAAHAHGDKAAKMAVAAGVDSIEHGSFIEDDTLRAMKAKNVYLVPTISAAAHVEEKIGTFPPVIAEKGRAAAAHLRQTFRHAVQIGVPIALGTDAAVGAHGSNAREFRYMVENGLTPAQALLAGTANAARLLGTFDRVGTLEAGKLADVVAVPGNPIADITVTERPLFVMKDGVVVRRDAVR",–,–,132,110
"176 (protein, exemplary polypeptide) MTTRTRILTAFLSLLAANACAADAAPAAPHTVVLRAARMFDGASGKLVDHPQLTIVGNKIVRIAQGDKAEVPAGAEVVDLGDATLLPGFIDAHVHLSGQSSDNWYGDFFDNMMRFPAEQALYGAYYARITLEAGFTSVRDVGSTDWVALGLRNAIDAGKVPGPRMLVSNYAVGSTGGHADQDPVPPHKLPLAGPLQGVCNGPEECRAAVRYQIKYGANVIKFMPSGGVLSLSDPVDAPELSQDEMNAVIGESHAWGRKVAAHAHGDKAAKMAVAAGVDSIEHGSFIEDDTLRAMKAKNVYLVPTISAVAHVEEKIGTFPPVIAEKGRAAAAHLRQTFRHAVQIGVPIALGTDAAVGAHGSNAREFRYMVENGLTPAQALLAGTANAARLLGTFDRVGTLEAGKLADVVAVPGNPIADITVTERPLFVMKDGVVVRRDAVR",–,–,112,95
